Data on one molecule can be found in PMC7164391 (Science (New York, N.Y.), 2020).

The assay deals with receptor-binding domain (RBD) of the SARS-CoV spike (S) protein (SARS-CoV, isolate of GenBank ABF65836.1 …, UniProt Q19QX0). The settings on record: both partners purified.

B1: CR3022 Fab (Fab, V domains shown)
VH: QMQLVQSGTEVKKPGESLKISCKGSGYGFITYWIGWVRQMPGKGLEWMGIIYPGDSETRYSPSFQGQVTISADKSINTAYLQWSSLKASDTAIYYCAGGSGISTPMDVWGQGTTVTVSS
VL: not shown
The term Kd denotes the concentration at which binding is half-saturated. Low values mean a tighter complex, high ones a looser complex. Regarding B1, the affinity, expressed as Kd, was 1 ± 0.1 nM.
